Experimental data as given in the supplement of paper PMC5998384.

Key:
HeLa Kyoto [1] = experiment: solubility change mitosis vs G1/S (difference of NP-40 vs SDS log2 ratios) (log2 ratio difference); higher = more soluble in mitosis
HeLa Kyoto [2] = experiment: solubility in G1/S (NP-40 vs SDS abundance) (log2 ratio); higher = more soluble; conditions: cell cycle stage: G1/S
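Wherever solubility change mitosis vs G1/S (difference of NP-40 vs SDS log2 ratios) is given: synchronized HeLa Kyoto cells (double thymidine block for G1/S, nocodazole release for mitosis), protein amounts in NP-40 versus SDS lysates quantified by mass spectrometry, three biological replicates.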
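Wherever solubility in G1/S (NP-40 vs SDS abundance) is given: HeLa Kyoto cells arrested at G1/S by double thymidine block, proteins quantified by TMT10plex mass spectrometry in mild NP-40 versus SDS extracts, three biological replicates.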

| Sequence | solubility change mitosis (log2) (HeLa Kyoto [1]) | solubility in G1/S (log2) (HeLa Kyoto [2]) |
| --- | --- | --- |
| MAARGRRAWLSVLLGLVLGFVLASRLVLPRASELKRAGPRRRASPEGCRSGQAAASQAGGARGDARGAQLWPPGSDPDGGPRDRNFLFVGVMTAQKYLQTRAVAAYRTWSKTIPGKVQFFSSEGSDTSVPIPVVPLRGVDDSYPPQKKSFMMLKYMHDHYLDKYEWFMRADDDVYIKGDRLENFLRSLNSSEPLFLGQTGLGTTEEMGKLALEPGENFCMGGPGVIMSREVLRRMVPHIGKCLREMYTTHEDVEVGRCVRRFAGVQCVWSYEMQQLFYENYEQNKKGYIRDLHNSKIHQAITLHPNKNPPYQYRLHSYMLSRKISELRHRTIQLHREIVLMSKYSNTEIHKEDLQLGIPPSFMRFQPRQREEILEWEFLTGKYLYSAVDGQPPRRGMDSAQREALDDIVMQVMEMINANAKTRGRIIDFKEIQYGYRRVNPMYGAEYILDLLLLYKKHKGKKMTVPVRRHAYLQQTFSKIQFVEHEELDAQELAKRINQESGSLSFLSNSLKKLVPFQLPGSKSEHKEPKDKKINILIPLSGRFDMFVRFMGNFEKTCLIPNQNVKLVVLLFNSDSNPDKAKQVELMRDYRIKYPKADMQILPVSGEFSRALALEVGSSQFNNESLLFFCDVDLVFTTEFLQRCRANTVLGQQIYFPIIFSQYDPKIVYSGKVPSDNHFAFTQKTGFWRNYGFGITCIYKGDLVRVGGFDVSIQGWGLEDVDLFNKVVQAGLKTFRSQEVGVVHVHHPVFCDPNLDPKQYKMCLGSKASTYGSTQQLAEMWLEKNDPSYSKSSNNNGSVRTA [CHSY1] | 0.159 | -0.388 |
| MAARPITLGIDLGTTSVKAALLRAAPDDPSGFAVLASCARAARAEAAVESAVAGPQGREQDVSRILQALHECLAALPRPQLRSVVGIGVSGQMHGVVFWKTGQGCEWTEGGITPVFEPRAVSHLVTWQDGRCSSEFLASLPQPKSHLSVATGFGCATIFWLLKYRPEFLKSYDAAGTIHDYVVAMLCGLPRPLMSDQNAASWGYFNTQSQSWNVETLRSSGFPVHLLPDIAEPGSVAGRTSHMWFEIPKGTQVGVALGDLQASVYSCMAQRTDAVLNISTSVQLAASMPSGFQPAQTPDPTAPVAYFPYFNRTYLGVAASLNGGNVLATFVHMLVQWMADLGLEVEESTVYSRMIQAAVQQRDTHLTITPTVLGERHLPDQLASVTRISSSDLSLGHVTRALCRGIVQNLHSMLPIQQLQEWGVERVMGSGSALSRNDVLKQEVQRAFPLPMSFGQDVDAAVGAALVMLRRHLNQKES [SHPK] | -0.108 | -0.0429 |
| MAASKKAVLGPLVGAVDQGTSSTRFLVFNSRTAELLSHHQVEIKQEFPREGWVEQDPKEILHSVYECIEKTCEKLGQLNIGISNIKAIGVSNQRETTVVWDKITGEPLYNAVVWLDLRTQSTVESLSKRIPGNNNFVKSKTGLPLSTYFSAVKLRWLLDNVRKVQKAVEEKRALFGTIDSWLIWSLTGGVNGGVHCTDVTNASRTMLFNIHSLEWDKQLCEFFGIPMEILPHVRSSSEIYGLMKAGALEGVPISGCLGDQSAALVGQMCFQIGQAKNTYGTGCFLLCNTGHKCVFSDHGLLTTVAYKLGRDKPVYYALEGSVAIAGAVIRWLRDNLGIIKTSEEIEKLAKEVGTSYGCYFVPAFSGLYAPYWEPSARGIICGLTQFTNKCHIAFAALEAVCFQTREILDAMNRDCGIPLSHLQVDGGMTSNKILMQLQADILYIPVVKPLMPETTALGAAMAAGAAEGVDVWSLEPEDLSAVTMERFEPQINAEESEIRYSTWKKAVMKSMGWVTTQSPEGGDPSVFCSLPLGFFIVSSMAMLIGARYISGIP [GK3P] | -0.0298 | -0.0732 |
| MAASLWMGDLEPYMDENFISRAFATMGETVMSVKIIRNRLTGIPAGYCFVEFADLATAEKCLHKINGKPLPGATPAKRFKLNYATYGKQPDNSPEYSLFVGDLTPDVDDGMLYEFFVKVYPSCRGGKVVLDQTGVSKGYGFVKFTDELEQKRALTECQGAVGLGSKPVRLSVAIPKASRVKPVEYSQMYSYSYNQYYQQYQNYYAQWGYDQNTGSYSYSYPQYGYTQSTMQTYEEVGDDALEDPMPQLDVTEANKEFMEQSEELYDALMDCHWQPLDTVSSEIPAMM [TRNAU1AP] | -0.0623 | 0.0945 |
| MAASRRSQHHHHHHQQQLQPAPGASAPPPPPPPPLSPGLAPGTTPASPTASGLAPFASPRHGLALPEGDGSRDPPDRPRSPDPVDGTSCCSTTSTICTVAAAPVVPAVSTSSAAGVAPNPAGSGSNNSPSSSSSPTSSSSSSPSSPGSSLAESPEAAGVSSTAPLGPGAAGPGTGVPAVSGALRELLEACRNGDVSRVKRLVDAANVNAKDMAGRKSSPLHFAAGFGRKDVVEHLLQMGANVHARDDGGLIPLHNACSFGHAEVVSLLLCQGADPNARDNWNYTPLHEAAIKGKIDVCIVLLQHGADPNIRNTDGKSALDLADPSAKAVLTGEYKKDELLEAARSGNEEKLMALLTPLNVNCHASDGRKSTPLHLAAGYNRVRIVQLLLQHGADVHAKDKGGLVPLHNACSYGHYEVTELLLKHGACVNAMDLWQFTPLHEAASKNRVEVCSLLLSHGADPTLVNCHGKSAVDMAPTPELRERLTYEFKGHSLLQAAREADLAKVKKTLALEIINFKQPQSHETALHCAVASLHPKRKQVTELLLRKGANVNEKNKDFMTPLHVAAERAHNDVMEVLHKHGAKMNALDTLGQTALHRAALAGHLQTCRLLLSYGSDPSIISLQGFTAAQMGNEAVQQILSESTPIRTSDVDYRLLEASKAGDLETVKQLCSSQNVNCRDLEGRHSTPLHFAAGYNRVSVVEYLLHHGADVHAKDKGGLVPLHNACSYGHYEVAELLVRHGASVNVADLWKFTPLHEAAAKGKYEICKLLLKHGADPTKKNRDGNTPLDLVKEGDTDIQDLLRGDAALLDAAKKGCLARVQKLCTPENINCRDTQGRNSTPLHLAAGYNNLEVAEYLLEHGADVNAQDKGGLIPLHNAASYGHVDIAALLIKYNTCVNATDKWAFTPLHEAAQKGRTQLCALLLAHGADPTMKNQEGQTPLDLATADDIRALLIDAMPPEALPTCFKPQATVVSASLISPASTPSCLSAASSIDNLTGPLAELAVGGASNAGDGAAGTERKEGEVAGLDMNISQFLKSLGLEHLRDIFETEQITLDVLADMGHEELKEIGINAYGHRHKLIKGVERLLGGQQGTNPYLTFHCVNQGTILLDLAPEDKEYQSVEEEMQSTIREHRDGGNAGGIFNRYNVIRIQKVVNKKLRERFCHRQKEVSEENHNHHNERMLFHGSPFINAIIHKGFDERHAYIGGMFGAGIYFAENSSKSNQYVYGIGGGTGCPTHKDRSCYICHRQMLFCRVTLGKSFLQFSTMKMAHAPPGHHSVIGRPSVNGLAYAEYVIYRGEQAYPEYLITYQIMKPEAPSQTATAAEQKT [TNKS] | -0.258 | 0.036 |
| MAASRSAGEAGPGGSQGRVVRMKRRGGRGPRRGPAGGGEKALKRLKLAVEEFVHATSEGEAPGGCEGRGAPVSFRPGGRKSRKELRKEKRHLRKARRLQRTAGPEQGPGLGGRSGAEEASGHRQDTEERARPAPSRDPSPPRKPRPSRVKAKATAATAKTRPSAAATAAARKRALLAANEEEDREIRKLERCLGLNKRKKKDGSSSVPLSFARDGLDYILGALESGKNSGLYDSSGEEEEDAGQTLPESDLESDSQDESEEEEEGDVEKEKKAQEAEAQSEDDDEDTEEEQGEEKEKGAQEKRRGKRVRFAEDEEKSENSSEDGDITDKSLCGSGEKYIPPHVRQAEETVDFKKKEELERLKKHVKGLLNRLSEPNMASISGQLEELYMAHSRKDMNDTLTSALMGACVTASAMPSRLMMEHVLLVSILHHTVGIEVGAHFLEAVVRKFDAIYKYGSEGKECDNLFTVIAHLYNFHVVQSLLIFDILKKLIGTFTEKDIELILLMLKNVGFSLRKDDALSLKELITEAQTKASGAGSEFQDQTRIRFMLETMLALKNNDMRKIPGYDPEPVEKLRKLQRALVRNAGSGSETQLRVSWDSVLSAEQTGRWWIVGSAWSGAPMIDNSHHTHLQKQLVGTVSSKILELARKQRMNTDIRRNIFCTIMTSEDFLDAFEKLLKLGLKDQQEREIIHVLMDCCLQEKTYNPFYAFLASKFCEYERRFQMTFQFSIWDKFRDLENLPATNFSNLVHLVAHLLKTKSLSLSILKVVEFSELDKPRVRFLRKVLSILLMETEVEDLSLIFTRVSDNPKLGVLREGLKLFISHFLLKNAQAHRSADEANVLREKADLATKCLQGKASLRM [NOM1] | 0.759 | -1 |
| MAAVAMTPNPVQTLQEEAVCAICLDYFTDPVSIGCGHNFCRVCVTQLWGGEDEEDRDELDREEEEEDGEEEEVEAVGAGAGWDTPMRDEDYEGDMEEEVEEEEEGVFWTSGMSRSSWDNMDYVWEEEDEEEDLDYYLGDMEEEDLRGEDEEDEEEVLEEVEEEDLDPVTPLPPPPAPRRCFTCPQCRKSFPRRSFRPNLQLANMVQVIRQMHPTPGRGSRVTDQGICPKHQEALKLFCEVDEEAICVVCRESRSHKQHSVVPLEEVVQEYKAKLQGHVEPLRKHLEAVQKMKAKEERRVTELKSQMKSELAAVASEFGRLTRFLAEEQAGLERRLREMHEAQLGRAGAAASRLAEQAAQLSRLLAEAQERSQQGGLRLLQDIKETFNRCEEVQLQPPEVWSPDPCQPHSHDFLTDAIVRKMSRMFCQAARVDLTLDPDTAHPALMLSPDRRGVRLAERRQEVADHPKRFSADCCVLGAQGFRSGRHYWEVEVGGRRGWAVGAARESTHHKEKVGPGGSSVGSGDASSSRHHHRRRRLHLPQQPLLQREVWCVGTNGKRYQAQSSTEQTLLSPSEKPRRFGVYLDYEAGRLGFYNAETLAHVHTFSAAFLGERVFPFFRVLSKGTRIKLCP [TRIM41] | 0.254 | -0.886 |
| MAAVGPPQQQVRMAHQQVWAALEVALRVPCLYIIDAIFNSYPDSSQSRFCIVLQIFLRLFGVFASSIVLILSQRSLFKFYTYSSAFLLAATSVLVNYYASLHIDFYGAYNTSAFGIELLPRKGPSLWMALIVLQLTFGIGYVTLLQIHSIYSQLIILDLLVPVIGLITELPLHIRETLLFTSSLILTLNTVFVLAVKLKWFYYSTRYVYLLVRHMYRIYGLQLLMEDTWKRIRFPDILRVFWLTRVTAQATVLMYILRMANETDSFFISWDDFWDLICNLIISGCDSTLTVLGMSAVISSVAHYLGLGILAFIGSTEEDDRRLGFVAPVLFFILALQTGLSGLRPEERLIRLSRNMCLLLTAVLHFIHGMTDPVLMSLSASHVSSFRRHFPVLFVSACLFILPVLLSYVLWHHYALNTWLFAVTAFCVELCLKVIVSLTVYTLFMIDGYYNVLWEKLDDYVYYVRSTGSIIEFIFGVVMFGNGAYTMMFESGSKIRAFMMCLHAYFNIYLQAKNGWKTFMNRRTAVKKINSLPEIKGSRLQEINDVCAICYHEFTTSARITPCNHYFHALCLRKWLYIQDTCPMCHQKVYIEDDIKDNSNVSNNNGFIPPNETPEEAVREAAAESDRELNEDDSTDCDDDVQRERNGVIQHTGAAAEEFNDDTD [RNF139] | -0.107 | -0.206 |
| MAAWSPAAAAPLLRGIRGLPLHHRMFATQTEGELRVTQILKEKFPRATAIKVTDISGGCGAMYEIKIESEEFKEKRTVQQHQMVNQALKEEIKEMHGLRIFTSVPKR [BOLA3] | 0.234 | 0.378 |
